# Assay results as given in the Human Domainome abundance scans (Beltran et al. 2025).
# ± gives the uncertainty stated by the source.
# B1: POU domain, class 4, transcription factor 2, residues 256 to 327; numbered along this chain, Q12837 (parent)
# chain: RDLEAFAERFKQRRIKLGVTQADVGSALANLKIPGVGSLSQSTICRFESLTLSHNNMIALKPILQAWLEEAE
# Variants of: B1
# Assay: abundance fitness (aPCA) (normalised: wild type 0, dead -1); higher = more abundant; growth selection in yeast, the domain comes from the species named
# Settings: Homo sapiens
row,Variant,abundance fitness
1,RDLEAFAERFKQRRIKLGVTQADVGSALANLKFPGVGSLSQSTICRFESLTLSHNNMIALKPILQAWLEEAE,-0.211 ± 0.093
2,RDLEAFAERFKQRRIKLGVTQADVGSALANLKGPGVGSLSQSTICRFESLTLSHNNMIALKPILQAWLEEAE,-0.116 ± 0.11
3,RDLEAFAERFKQRRIKLGVTQADVGSALANLKHPGVGSLSQSTICRFESLTLSHNNMIALKPILQAWLEEAE,-0.438 ± 0.17
4,RDLEAFAERFKQRRIKLGVTQADVGSALANLKKPGVGSLSQSTICRFESLTLSHNNMIALKPILQAWLEEAE,-0.421 ± 0.094
5,RDLEAFAERFKQRRIKLGVTQADVGSALANLKLPGVGSLSQSTICRFESLTLSHNNMIALKPILQAWLEEAE,-0.081 ± 0.066
6,RDLEAFAERFKQRRIKLGVTQADVGSALANLKMPGVGSLSQSTICRFESLTLSHNNMIALKPILQAWLEEAE,-0.162 ± 0.094
7,RDLEAFAERFKQRRIKLGVTQADVGSALANLKNPGVGSLSQSTICRFESLTLSHNNMIALKPILQAWLEEAE,-0.434 ± 0.16
8,RDLEAFAERFKQRRIKLGVTQADVGSALANLKPPGVGSLSQSTICRFESLTLSHNNMIALKPILQAWLEEAE,-0.357 ± 0.1
9,RDLEAFAERFKQRRIKLGVTQADVGSALANLKQPGVGSLSQSTICRFESLTLSHNNMIALKPILQAWLEEAE,-0.426 ± 0.17
10,RDLEAFAERFKQRRIKLGVTQADVGSALANLKSPGVGSLSQSTICRFESLTLSHNNMIALKPILQAWLEEAE,-0.274 ± 0.048
11,RDLEAFAERFKQRRIKLGVTQADVGSALANLKTPGVGSLSQSTICRFESLTLSHNNMIALKPILQAWLEEAE,-0.311 ± 0.069
12,RDLEAFAERFKQRRIKLGVTQADVGSALANLKVPGVGSLSQSTICRFESLTLSHNNMIALKPILQAWLEEAE,0.008 ± 0.055
13,RDLEAFAERFKQRRIKLGVTQADVGSALANLKWPGVGSLSQSTICRFESLTLSHNNMIALKPILQAWLEEAE,-0.414 ± 0.099
14,RDLEAFAERFKQRRIKLGVTQADVGSALANLKYPGVGSLSQSTICRFESLTLSHNNMIALKPILQAWLEEAE,-0.126 ± 0.11
15,RDLEAFAERFKQRRIKLGVTQADVGSALANLKIAGVGSLSQSTICRFESLTLSHNNMIALKPILQAWLEEAE,-0.244 ± 0.094
16,RDLEAFAERFKQRRIKLGVTQADVGSALANLKICGVGSLSQSTICRFESLTLSHNNMIALKPILQAWLEEAE,-0.679 ± 0.19
17,RDLEAFAERFKQRRIKLGVTQADVGSALANLKIDGVGSLSQSTICRFESLTLSHNNMIALKPILQAWLEEAE,-0.221 ± 0.13
18,RDLEAFAERFKQRRIKLGVTQADVGSALANLKIEGVGSLSQSTICRFESLTLSHNNMIALKPILQAWLEEAE,-0.036 ± 0.075
19,RDLEAFAERFKQRRIKLGVTQADVGSALANLKIGGVGSLSQSTICRFESLTLSHNNMIALKPILQAWLEEAE,-0.1 ± 0.1

row,Variant,abundance fitness
1,RDLEAFAERFKQRRIKLGVTQADVGSALANLKIHGVGSLSQSTICRFESLTLSHNNMIALKPILQAWLEEAE,-0.073 ± 0.12
2,RDLEAFAERFKQRRIKLGVTQADVGSALANLKIIGVGSLSQSTICRFESLTLSHNNMIALKPILQAWLEEAE,-0.402 ± 0.22
3,RDLEAFAERFKQRRIKLGVTQADVGSALANLKIKGVGSLSQSTICRFESLTLSHNNMIALKPILQAWLEEAE,-0.008 ± 0.088
4,RDLEAFAERFKQRRIKLGVTQADVGSALANLKIMGVGSLSQSTICRFESLTLSHNNMIALKPILQAWLEEAE,-0.175 ± 0.13
5,RDLEAFAERFKQRRIKLGVTQADVGSALANLKIQGVGSLSQSTICRFESLTLSHNNMIALKPILQAWLEEAE,-0.263 ± 0.1
6,RDLEAFAERFKQRRIKLGVTQADVGSALANLKIRGVGSLSQSTICRFESLTLSHNNMIALKPILQAWLEEAE,-0.231 ± 0.05
7,RDLEAFAERFKQRRIKLGVTQADVGSALANLKISGVGSLSQSTICRFESLTLSHNNMIALKPILQAWLEEAE,-0.106 ± 0.054
8,RDLEAFAERFKQRRIKLGVTQADVGSALANLKITGVGSLSQSTICRFESLTLSHNNMIALKPILQAWLEEAE,-0.275 ± 0.092
9,RDLEAFAERFKQRRIKLGVTQADVGSALANLKIWGVGSLSQSTICRFESLTLSHNNMIALKPILQAWLEEAE,-0.528 ± 0.12
10,RDLEAFAERFKQRRIKLGVTQADVGSALANLKIYGVGSLSQSTICRFESLTLSHNNMIALKPILQAWLEEAE,-0.515 ± 0.36
11,RDLEAFAERFKQRRIKLGVTQADVGSALANLKIPAVGSLSQSTICRFESLTLSHNNMIALKPILQAWLEEAE,-0.323 ± 0.1
12,RDLEAFAERFKQRRIKLGVTQADVGSALANLKIPCVGSLSQSTICRFESLTLSHNNMIALKPILQAWLEEAE,-0.512 ± 0.19
13,RDLEAFAERFKQRRIKLGVTQADVGSALANLKIPDVGSLSQSTICRFESLTLSHNNMIALKPILQAWLEEAE,-0.36 ± 0.22
14,RDLEAFAERFKQRRIKLGVTQADVGSALANLKIPEVGSLSQSTICRFESLTLSHNNMIALKPILQAWLEEAE,-0.435 ± 0.19
15,RDLEAFAERFKQRRIKLGVTQADVGSALANLKIPFVGSLSQSTICRFESLTLSHNNMIALKPILQAWLEEAE,-0.084 ± 0.44
16,RDLEAFAERFKQRRIKLGVTQADVGSALANLKIPHVGSLSQSTICRFESLTLSHNNMIALKPILQAWLEEAE,-0.528 ± 0.18
17,RDLEAFAERFKQRRIKLGVTQADVGSALANLKIPKVGSLSQSTICRFESLTLSHNNMIALKPILQAWLEEAE,-0.389 ± 0.13
18,RDLEAFAERFKQRRIKLGVTQADVGSALANLKIPLVGSLSQSTICRFESLTLSHNNMIALKPILQAWLEEAE,-0.329 ± 0.076
